# Molecular target: human CD20 (human) (UniProt P11836)
# Experiment: cell-based or functional assay
# Sequence of UniProt P11836 (P11836 whole entry): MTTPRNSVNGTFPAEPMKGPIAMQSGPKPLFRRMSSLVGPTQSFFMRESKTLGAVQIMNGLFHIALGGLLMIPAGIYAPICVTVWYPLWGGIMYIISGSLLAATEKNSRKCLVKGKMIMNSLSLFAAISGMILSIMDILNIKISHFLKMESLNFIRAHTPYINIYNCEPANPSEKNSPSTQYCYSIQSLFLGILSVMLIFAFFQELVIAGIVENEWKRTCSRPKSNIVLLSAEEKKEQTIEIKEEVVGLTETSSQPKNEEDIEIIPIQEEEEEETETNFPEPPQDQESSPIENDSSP
substance,measurement,value
Rituximab (antibody),ADCC by haNK cells for SUP-B15^CD20 at the highest 10:1 ET ratio,60%

# From patent publication US20210040175A1
